# Data: PMC9482650, “Quantitative fragmentomics allow affinity mapping of interactomes” (Nature Communications, 2022)
# Columns and labels:
# Assay in all cases: holdup assay
# Parameters in all cases: key: below the threshold = too weak to quantify, mostly under pKd 3.1 to 4
# [1] = biological target: T1, APBA3_1, O96018
# T1 sequence (O96018 389-490, limits assumed, looked up): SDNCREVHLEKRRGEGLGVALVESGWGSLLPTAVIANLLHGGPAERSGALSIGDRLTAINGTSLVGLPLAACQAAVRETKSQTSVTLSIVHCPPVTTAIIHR
# [2] = biological target: T2, ARHGAP21, Q5T5U3
# T2 sequence (Q5T5U3 45-169, limits assumed, looked up): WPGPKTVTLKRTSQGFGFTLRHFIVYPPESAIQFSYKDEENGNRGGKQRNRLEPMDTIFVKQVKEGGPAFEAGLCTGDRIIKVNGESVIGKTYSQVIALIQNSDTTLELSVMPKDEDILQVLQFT
# [3] = biological target: T3, DFNB31_2, Q9P202
# T3 sequence (Q9P202 274-371, limits assumed, looked up): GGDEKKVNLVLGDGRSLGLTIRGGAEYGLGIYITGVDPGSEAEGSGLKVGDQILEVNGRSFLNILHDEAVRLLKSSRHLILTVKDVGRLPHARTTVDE
# [4] = biological target: DLG1_2, Q12959
# Sequence of DLG1_2, Q12959 (Q12959 314-412): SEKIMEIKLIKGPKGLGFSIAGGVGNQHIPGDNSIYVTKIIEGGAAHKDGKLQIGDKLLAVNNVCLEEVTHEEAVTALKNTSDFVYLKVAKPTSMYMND
# [5] = biological target: T4, DLG3_3, Q92796
# T4 sequence (Q92796 374-475, limits assumed, looked up): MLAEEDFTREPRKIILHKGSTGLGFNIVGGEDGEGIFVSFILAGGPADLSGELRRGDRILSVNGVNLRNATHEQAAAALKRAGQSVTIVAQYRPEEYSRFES
# [6] = biological target: DLG4_1, P78352
# Sequence of DLG4_1, P78352 (P78352 62-152): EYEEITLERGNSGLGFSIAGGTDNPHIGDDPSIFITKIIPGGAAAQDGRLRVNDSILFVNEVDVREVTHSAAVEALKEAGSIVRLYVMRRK
# [7] = biological target: DLG4_2, P78352
# Sequence of DLG4_2, P78352 (P78352 155-259): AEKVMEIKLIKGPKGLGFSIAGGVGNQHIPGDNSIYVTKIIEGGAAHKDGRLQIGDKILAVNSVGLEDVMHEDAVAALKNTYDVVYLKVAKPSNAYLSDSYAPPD
# [8] = biological target: DLG4_3, P78352
# Sequence of DLG4_3, P78352 (P78352 306-403): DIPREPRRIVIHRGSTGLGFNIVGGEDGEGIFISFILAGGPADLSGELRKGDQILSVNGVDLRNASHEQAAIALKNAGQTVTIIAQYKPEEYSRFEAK
# [9] = biological target: DLG5_1, Q8TDM6
# Sequence of DLG5_1, Q8TDM6 (Q8TDM6 617-713): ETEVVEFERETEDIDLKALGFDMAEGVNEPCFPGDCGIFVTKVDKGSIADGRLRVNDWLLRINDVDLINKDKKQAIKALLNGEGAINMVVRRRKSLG
# [10] = biological target: FRMPD2_2, Q68DX3
# Sequence of FRMPD2_2, Q68DX3 (Q68DX3 944-1038): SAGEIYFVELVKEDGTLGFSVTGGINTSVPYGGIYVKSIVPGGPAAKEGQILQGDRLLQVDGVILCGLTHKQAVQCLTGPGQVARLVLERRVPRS
# [11] = biological target: FRMPD4, Q14CM0
# Sequence of FRMPD4, Q14CM0 (Q14CM0 67-160): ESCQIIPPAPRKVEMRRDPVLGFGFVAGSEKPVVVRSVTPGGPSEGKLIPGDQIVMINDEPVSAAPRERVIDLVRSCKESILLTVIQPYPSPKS
# [12] = biological target: GIPC2, Q8TF65
# Sequence of GIPC2, Q8TF65 (Q8TF65 112-203): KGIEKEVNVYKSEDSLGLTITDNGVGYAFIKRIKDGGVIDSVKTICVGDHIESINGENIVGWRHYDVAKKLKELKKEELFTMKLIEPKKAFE
# [13] = biological target: GORASP2, Q9H8Y8
# [14] = biological target: GRIP2_3, Q9C0E4
# Sequence of GRIP2_3, Q9C0E4 (Q9C0E4 238-339): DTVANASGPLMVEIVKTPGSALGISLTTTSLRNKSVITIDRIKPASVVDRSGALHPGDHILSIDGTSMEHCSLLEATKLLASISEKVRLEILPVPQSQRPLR
# [15] = biological target: GRIP2_6, Q9C0E4
# Sequence of GRIP2_6, Q9C0E4 (Q9C0E4 648-740): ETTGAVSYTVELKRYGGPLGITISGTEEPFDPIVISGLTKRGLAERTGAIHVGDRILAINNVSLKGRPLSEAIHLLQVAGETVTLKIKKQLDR
# [16] = biological target: LNX1_2, Q8TBB1
# Sequence of LNX1_2, Q8TBB1 (Q8TBB1 371-470): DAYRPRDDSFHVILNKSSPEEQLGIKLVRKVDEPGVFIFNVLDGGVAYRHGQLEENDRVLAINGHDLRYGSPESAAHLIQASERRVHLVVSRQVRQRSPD
# [17] = biological target: T5, LNX2_3, Q8N448
# T5 sequence (Q8N448 463-564, limits assumed, looked up): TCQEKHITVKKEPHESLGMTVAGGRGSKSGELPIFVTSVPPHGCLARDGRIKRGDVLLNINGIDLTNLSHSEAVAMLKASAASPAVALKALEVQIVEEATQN
# [18] = biological target: T6, LRRC7, Q96NW7
# T6 sequence (Q96NW7 1440-1537, limits assumed, looked up): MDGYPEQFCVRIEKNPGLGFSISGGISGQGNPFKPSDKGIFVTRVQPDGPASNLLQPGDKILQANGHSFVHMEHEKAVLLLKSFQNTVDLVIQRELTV
# [19] = biological target: MAGI3_2, Q5TCQ9
# Sequence of MAGI3_2, Q5TCQ9 (Q5TCQ9 398-503): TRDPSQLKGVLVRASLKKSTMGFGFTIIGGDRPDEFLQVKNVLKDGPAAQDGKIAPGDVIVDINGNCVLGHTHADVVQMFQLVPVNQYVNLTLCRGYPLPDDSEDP
# [20] = biological target: MAST2, Q6P0Q8
# Sequence of MAST2, Q6P0Q8 (Q6P0Q8 1099-1202): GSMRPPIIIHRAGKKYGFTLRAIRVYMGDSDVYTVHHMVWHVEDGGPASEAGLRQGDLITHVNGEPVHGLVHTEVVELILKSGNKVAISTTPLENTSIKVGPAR
# [21] = biological target: T7, NHERF3_1, Q5T2W1
# T7 sequence (Q5T2W1 4-100, limits assumed, looked up): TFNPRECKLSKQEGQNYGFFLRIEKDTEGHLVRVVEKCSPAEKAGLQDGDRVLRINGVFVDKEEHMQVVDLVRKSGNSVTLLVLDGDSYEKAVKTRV
# [22] = biological target: T8, NHERF3_4, Q5T2W1
# T8 sequence (Q5T2W1 373-468, limits assumed, looked up): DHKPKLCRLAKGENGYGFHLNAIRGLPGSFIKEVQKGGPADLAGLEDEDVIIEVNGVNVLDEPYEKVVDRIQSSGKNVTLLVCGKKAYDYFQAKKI
# [23] = biological target: NHERF4_4, Q86UT5
# Sequence of NHERF4_4, Q86UT5 (Q86UT5 464-550): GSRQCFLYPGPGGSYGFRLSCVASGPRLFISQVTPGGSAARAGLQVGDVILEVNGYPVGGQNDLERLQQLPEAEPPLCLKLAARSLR
# [24] = biological target: T9, RHPN1, Q8TCX5
# T9 sequence (Q8TCX5 508-602, limits assumed, looked up): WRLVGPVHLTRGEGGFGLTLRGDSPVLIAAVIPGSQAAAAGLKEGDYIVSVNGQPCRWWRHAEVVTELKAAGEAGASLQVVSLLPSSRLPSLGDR
# [25] = biological target: SCRIB_1, Q14160
# Sequence of SCRIB_1, Q14160 (Q14160 718-814): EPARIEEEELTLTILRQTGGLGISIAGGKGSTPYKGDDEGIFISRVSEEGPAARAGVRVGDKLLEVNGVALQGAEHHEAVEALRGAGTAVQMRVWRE
# [26] = biological target: SNX27, Q96L92
# [27] = biological target: T10, SYNJ2BP, P57105
# T10 sequence (P57105 8-110, limits assumed, looked up): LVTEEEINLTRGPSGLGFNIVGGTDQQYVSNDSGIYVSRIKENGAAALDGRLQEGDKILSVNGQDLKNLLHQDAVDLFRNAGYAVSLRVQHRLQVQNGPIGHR
# [28] = plain residues with an end cap or a label only (N-terminal biotin on a linker: ado-ado)
# [29] = plain residues with an end cap or a label only (N-terminal biotin on a linker: ttds)
# [30] = plain residues with an end cap or a label only (N-terminal biotin on a linker: ahx)
# [31] = plain residues with an end cap or a label only (N-terminal biotin on a linker: ado-ado, ttds)
binder,measurement,setting,value
"ELKAEDEVQI [DCHS2, Q6V1P9]",pKd,[1]; [28],below the threshold
same,pKd,[2]; [28],3.92
same,pKd,[3]; [28],below the threshold
same,pKd,[4]; [28],below the threshold
same,pKd,[5]; [28],below the threshold
same,pKd,[6]; [28],below the threshold
same,pKd,[7]; [28],below the threshold
same,pKd,[8]; [28],below the threshold
same,pKd,[9]; [28],below the threshold
same,pKd,[10]; [28],below the threshold
same,pKd,[11]; [28],below the threshold
same,pKd,[12]; [28],below the threshold
same,pKd,[13]; [28],below the threshold
same,pKd,[14]; [28],below the threshold
same,pKd,[15]; [28],below the threshold
same,pKd,[16]; [28],below the threshold
same,pKd,[17]; [28],below the threshold
same,pKd,[18]; [28],below the threshold
same,pKd,[19]; [28],below the threshold
same,pKd,[20]; [28],below the threshold
same,pKd,[21]; [28],below the threshold
same,pKd,[22]; [28],below the threshold
same,pKd,[23]; [28],below the threshold
same,pKd,[24]; [28],below the threshold
same,pKd,[25]; [28],below the threshold
same,pKd,[26]; [28],below the threshold
same,pKd,[27]; [28],below the threshold
"PPRQRSETQV [HPV82-E6, Q9IR59]",pKd,[1]; [29],below the threshold
same,pKd,[2]; [29],below the threshold
same,pKd,[3]; [29],below the threshold
same,pKd,[4]; [29],5.02
same,pKd,[5]; [29],4.63
same,pKd,[6]; [29],4.65
same,pKd,[7]; [29],4.9
same,pKd,[8]; [29],4.43
same,pKd,[9]; [29],below the threshold
same,pKd,[10]; [29],below the threshold
same,pKd,[11]; [29],below the threshold
same,pKd,[12]; [29],below the threshold
same,pKd,[13]; [29],4.12
same,pKd,[14]; [29],below the threshold
same,pKd,[15]; [29],below the threshold
same,pKd,[16]; [29],below the threshold
same,pKd,[17]; [29],below the threshold
same,pKd,[18]; [29],below the threshold
same,pKd,[19]; [29],5.68
same,pKd,[20]; [29],5.18
same,pKd,[21]; [29],4.03
same,pKd,[22]; [29],below the threshold
same,pKd,[23]; [29],below the threshold
same,pKd,[24]; [29],3.72
same,pKd,[25]; [29],4.12
same,pKd,[26]; [29],4.67
same,pKd,[27]; [29],4.86
"SKKNELFSNL [NHERF1, O14745]",pKd,[1]; [30],below the threshold
same,pKd,[2]; [30],below the threshold
same,pKd,[3]; [30],below the threshold
same,pKd,[4]; [30],below the threshold
same,pKd,[5]; [30],below the threshold
same,pKd,[6]; [30],below the threshold
same,pKd,[7]; [30],below the threshold
same,pKd,[8]; [30],below the threshold
same,pKd,[9]; [30],below the threshold
same,pKd,[10]; [30],below the threshold
same,pKd,[11]; [30],below the threshold
same,pKd,[12]; [30],below the threshold
same,pKd,[13]; [30],below the threshold
same,pKd,[14]; [30],below the threshold
same,pKd,[15]; [30],below the threshold
same,pKd,[16]; [30],below the threshold
same,pKd,[17]; [30],below the threshold
same,pKd,[18]; [30],below the threshold
same,pKd,[19]; [30],below the threshold
same,pKd,[20]; [30],4.5
same,pKd,[21]; [30],below the threshold
same,pKd,[22]; [30],below the threshold
same,pKd,[23]; [30],below the threshold
same,pKd,[24]; [30],3.76
same,pKd,[25]; [30],below the threshold
same,pKd,[26]; [30],below the threshold
same,pKd,[27]; [30],below the threshold
"SNAKAVETDV [KCNA4, P22459]",pKd,[1]; [31],below the threshold
same,pKd,[2]; [31],below the threshold
same,pKd,[3]; [31],below the threshold
same,pKd,[4]; [31],5.42
same,pKd,[5]; [31],below the threshold
same,pKd,[6]; [31],4.67
same,pKd,[7]; [31],5.19
same,pKd,[8]; [31],below the threshold
same,pKd,[9]; [31],below the threshold
same,pKd,[10]; [31],3.52
same,pKd,[11]; [31],below the threshold
same,pKd,[12]; [31],below the threshold
same,pKd,[13]; [31],below the threshold
same,pKd,[14]; [31],below the threshold
same,pKd,[15]; [31],below the threshold
same,pKd,[16]; [31],below the threshold
same,pKd,[17]; [31],below the threshold
same,pKd,[18]; [31],3.64
same,pKd,[19]; [31],3.9
same,pKd,[20]; [31],5.18
same,pKd,[21]; [31],below the threshold
same,pKd,[22]; [31],below the threshold
same,pKd,[23]; [31],below the threshold
same,pKd,[24]; [31],4.15
same,pKd,[25]; [31],below the threshold
same,pKd,[26]; [31],below the threshold
same,pKd,[27]; [31],4.37
"SSIDLWETAL [SLC15A5, A6NIM6]",pKd,[1]; [29],below the threshold
same,pKd,[2]; [29],4.55
same,pKd,[3]; [29],below the threshold
same,pKd,[4]; [29],4.4
same,pKd,[5]; [29],3.8
same,pKd,[6]; [29],4.29
same,pKd,[7]; [29],4.22
same,pKd,[8]; [29],below the threshold
same,pKd,[9]; [29],below the threshold
same,pKd,[10]; [29],4.3
same,pKd,[11]; [29],5.35
same,pKd,[12]; [29],4.04
same,pKd,[13]; [29],below the threshold
same,pKd,[14]; [29],below the threshold
same,pKd,[15]; [29],below the threshold
same,pKd,[16]; [29],below the threshold
same,pKd,[17]; [29],below the threshold
same,pKd,[18]; [29],4.47
same,pKd,[19]; [29],3.81
same,pKd,[20]; [29],5.44
same,pKd,[21]; [29],6.25
same,pKd,[22]; [29],4.94
same,pKd,[23]; [29],4.4
same,pKd,[24]; [29],5
same,pKd,[25]; [29],5.76
same,pKd,[26]; [29],5.92
same,pKd,[27]; [29],5.45
